In patent publication US20250230251A1 (Bristol-Myers Squibb, published 2025):

Target: T1, IL-18:IL-18Rα complex (human, UniProt Q14116 37-193; Q13478 19-329, limits assumed)
T1 construct: Made by mixing 1.6 uM IL-18 with 100 nM IL-18Ra-Fc-His; also called complexed IL-18: IL-18Rα; not shown: Fc and His tag of the bought fusion protein, not described
T1 sequence (looked up) 1: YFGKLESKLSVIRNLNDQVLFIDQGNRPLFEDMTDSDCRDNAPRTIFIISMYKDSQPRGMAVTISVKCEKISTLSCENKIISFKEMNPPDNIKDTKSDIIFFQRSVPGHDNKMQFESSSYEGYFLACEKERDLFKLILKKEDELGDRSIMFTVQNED
T1 sequence (looked up) 2: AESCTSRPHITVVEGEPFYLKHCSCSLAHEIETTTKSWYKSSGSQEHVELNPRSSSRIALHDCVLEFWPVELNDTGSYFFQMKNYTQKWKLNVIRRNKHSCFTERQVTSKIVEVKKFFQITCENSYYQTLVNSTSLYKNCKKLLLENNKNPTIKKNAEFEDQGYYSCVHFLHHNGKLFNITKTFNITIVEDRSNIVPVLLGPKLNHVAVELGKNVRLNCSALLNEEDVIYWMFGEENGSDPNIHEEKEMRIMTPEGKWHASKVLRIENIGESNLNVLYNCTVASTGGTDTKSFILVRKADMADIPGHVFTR
Test: Octet RED384 BLI, complex on sensor-captured biotin-hIL-18Rβ-Avi-His after the 50 nM antibody step

B1: huIL-18Rβ-HisAvi (receptor)
chain: FNISGCSTKKLLWTYSTRSEEEFVLFCDLPEPQKSHFCHRNRLSPKQVPEHLPFMGSNDLSDVQWYQQPSNGDPLEDIRKSYPHIIQDKCTLHFLTPGVNNSGSYICRPKMIKSPYDVACCVKMILEVKPQTNASCEYSASHKQDLLLGSTGSISCPSLSCQSDAQSPAVTWYKNGKLLSVERSNRIVVDEVYDYHQGTYVCDYTQSDTVSSWTVRAVVQVRTIVGDTKLKPDILDPVEDTLEVELGKPLTISCKARFGFERVFNPVIKWYIKDSDLEWEVSVPEAKSIKSTLKDEIIERNIILEKVTQRDLRRKFVCFVQNSIGNTTQSVQLKEKR
modifications: biotinylated in the Octet blocking assay
notes: Soluble analyte in all SPR runs; captured on streptavidin sensors in the Octet assay; also called human IL-18Rβ; human IL-18Rβ-Avi-His
binding result: binds
